Substrate: N=C(N)NCCC[C@H](N)C(=O)O
Test: Km determination by Lineweaver-Burk plot analysis, citrulline formation assay
Format: biochemical, Mycoplasma arginini
Details: other: purified enzyme from M. arginini, substrate L-arginine, pH 7.0
Description: The activity of arginine deiminase can be determined by causing it to produce citrulline using the method reported by Fenske et. al. [J. Bacteriol. 126, 501-510 (1976)], and by measuring the amount of the yields using the method given by Archibald [J. Biol. Chem. 156, 121-142 (1944)].
Specifically, 20 μl of arginine deiminase solution is added to 1.0 ml of 10 mM arginine [dissolved in 0.1M phosphate buffer of pH 7.0], then an enzyme reaction is allowed to take place at 37° C. for 10 minutes, and the reaction is terminated by adding 1 ml of mixed acid solution (H2 SO4 :H3 PO4 =1:3). Then, the resultant reactive solution is added with 25 μl of 3% aqueous diacetylmonooxim solution, heated at 100° C. for 20 minutes under a light-shielded condition, left to cool under a room temperature for 30 minutes, and then the amount of the citrulline yield is measured quantitatively by measuring the absorbence at 490 nm. The activity of arginine deiminase producing 1 μmol of citrulline in one minute is defined as 1 unit.
v) Km value and Vmax value
By the Lineweaver-Burk plot analysis Km and Vmax were determined as 0.2 mM and 50 U/mg, respectively.

B1: Mycoplasma arginini (IFO 14476) arginine deiminase (EC 3.5.3.6), present invention, amino acid sequence of FIG. 4 (Mycoplasmopsis arginini) (protein)
chain: MSVFDSKFKGIHVYSEIGELESVLVHEPGREIDYITPARLDELLFSAILESHDARKEHKQFVAELKANDINVVELIDLVAETYDLASQEAKDKLIEEFLEDSEPVLSEEHKVVVRNFLKAKKTSRELVEIMMAGITKYDLGIEADHELIVDPMPNLYFTRDPFASVGNGVTIHYMRYKVRQRETLFSRFVFSNHPKLINTPWYYDPSLKLSIEGGDVFIYNNDTLVVGVSERTDLQTVTLLAKNIVANKECEFKRIVAINVPKWTNLMHLDTWLTMLDKDKFLYSPIANDVFKFWDYDLVNGGAEPQPVENGLPLEGLLQSIINKKPVLIPIAGEGASQMEIERETHFDGTNYLAIRPGVVIGYSRNEKTNAALEAAGIKVLPFHGNQLSLGMGNARCMSMPLSRKDVKW
notes: Arginine deiminase was purified from the M. arginini cell extract; endogenous in cells; host or cells: Mycoplasma arginini IFO 14476 cells (strain from the Institute for Fermentation, Osaka); enzyme purified in house by three chromatography steps
Km: 200 µM

— US5474928A, “Arginine deiminase from a Mycoplasma arginini strain” (Nippon Mining Company, Limited, priority 1989, dated 1995)
